According to patent US20040102610A1 (Genentech, published 2004):

How the values were obtained:
[1] = target: T1, GST-hSu(fu) (UniProt Q9UMX1)
T1 sequence: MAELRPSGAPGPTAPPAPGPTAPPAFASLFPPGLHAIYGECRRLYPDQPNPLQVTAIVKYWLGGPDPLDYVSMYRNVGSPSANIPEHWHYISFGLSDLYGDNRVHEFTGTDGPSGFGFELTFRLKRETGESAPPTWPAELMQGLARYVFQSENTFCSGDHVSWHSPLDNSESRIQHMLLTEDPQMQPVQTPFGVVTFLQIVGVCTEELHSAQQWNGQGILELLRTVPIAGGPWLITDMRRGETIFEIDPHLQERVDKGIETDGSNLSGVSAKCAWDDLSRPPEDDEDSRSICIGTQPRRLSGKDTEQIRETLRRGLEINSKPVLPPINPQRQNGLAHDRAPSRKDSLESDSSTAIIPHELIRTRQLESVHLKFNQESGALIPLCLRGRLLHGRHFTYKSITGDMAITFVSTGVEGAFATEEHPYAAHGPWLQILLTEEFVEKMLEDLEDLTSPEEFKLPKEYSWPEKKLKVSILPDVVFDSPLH

[2] = target: T2, human fused (human, UniProt Q9NRP7 1-1315); assay: FIG. 14C: 293 cells transfected with N-Myc hGli-1, hSu(fu) C-Flag and increasing amounts of hfused
T2 construct: The same id is used for endogenous human fused of 293 cells in the GST-hSu(fu) pull-down; also called hfused; hFu
T2 sequence: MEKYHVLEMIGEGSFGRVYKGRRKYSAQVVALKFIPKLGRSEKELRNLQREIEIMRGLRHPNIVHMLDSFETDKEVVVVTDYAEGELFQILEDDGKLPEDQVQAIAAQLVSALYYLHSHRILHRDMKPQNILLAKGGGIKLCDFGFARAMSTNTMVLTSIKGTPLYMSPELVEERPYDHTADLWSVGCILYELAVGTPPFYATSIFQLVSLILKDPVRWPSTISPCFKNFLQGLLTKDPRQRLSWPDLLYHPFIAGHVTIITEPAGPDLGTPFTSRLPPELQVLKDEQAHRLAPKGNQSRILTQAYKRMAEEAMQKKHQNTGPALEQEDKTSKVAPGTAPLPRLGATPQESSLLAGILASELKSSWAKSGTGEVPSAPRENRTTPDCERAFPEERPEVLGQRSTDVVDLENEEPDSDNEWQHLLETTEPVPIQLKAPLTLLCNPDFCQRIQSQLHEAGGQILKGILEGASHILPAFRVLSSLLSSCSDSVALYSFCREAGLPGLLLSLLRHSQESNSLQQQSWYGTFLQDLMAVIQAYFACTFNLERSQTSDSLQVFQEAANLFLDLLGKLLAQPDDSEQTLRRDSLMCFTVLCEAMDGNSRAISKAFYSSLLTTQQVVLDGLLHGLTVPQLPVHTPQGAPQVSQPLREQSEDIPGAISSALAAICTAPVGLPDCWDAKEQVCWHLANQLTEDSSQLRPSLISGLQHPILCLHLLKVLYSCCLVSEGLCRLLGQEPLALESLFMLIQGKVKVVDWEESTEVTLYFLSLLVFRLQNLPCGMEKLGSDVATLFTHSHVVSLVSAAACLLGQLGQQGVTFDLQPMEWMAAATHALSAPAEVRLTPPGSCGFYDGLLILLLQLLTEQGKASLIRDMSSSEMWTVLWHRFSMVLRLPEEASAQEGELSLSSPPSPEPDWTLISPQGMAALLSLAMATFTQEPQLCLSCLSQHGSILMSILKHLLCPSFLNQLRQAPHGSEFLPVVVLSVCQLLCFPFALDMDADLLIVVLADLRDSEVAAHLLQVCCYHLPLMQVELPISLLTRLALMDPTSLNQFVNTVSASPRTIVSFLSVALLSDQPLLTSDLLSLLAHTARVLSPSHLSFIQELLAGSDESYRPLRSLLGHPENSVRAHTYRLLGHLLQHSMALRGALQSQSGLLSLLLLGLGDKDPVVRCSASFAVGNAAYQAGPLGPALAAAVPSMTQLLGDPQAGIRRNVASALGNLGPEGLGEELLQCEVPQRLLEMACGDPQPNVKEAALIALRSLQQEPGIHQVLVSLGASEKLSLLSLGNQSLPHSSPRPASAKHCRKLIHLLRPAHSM
From the text: (§1) FIG. 14 describes the biochemical interaction of hFu, hSu(fu) and hGli-1. FIG. 14(A) depicts the interaction of hFu with hSu(fu) in mammalian cells. 293 cells were transfected with hfused and hSu(fu) C-Flag or hfused C-Flag and hSu(fu) C-Myc either alone or in combination. Cell lysates were subjected to anti-Flag immunoprecipitation, and co-precipitating proteins were detected by immunoblotting. FIG. 14(B) depicts the interaction of hfused with hGli-1 in mammalian cells. 293 cells were transfected with hfused C-Flag or N-Myc hGli-1 both alone or in combination, and immunoprecipitated with anti-Myc or anti-Flag antibodies. Proteins were detected by immunoblotting. […] 293 cells were transfected with N-Myc hGli-1, hSu(fu) C-Flag and increasing amounts of hfused. The amount of hfused and hSu(fu) bound to hGli-1 was determined by anti-Myc immunoprecipitation and immunoblotting. Protein expression was analyzed by immunoblotting aliquots of total cell lysates (bottom panel).
(§2) For immunoprecipitation experiments human embryonic kidney 293 cells or C3H10T1/2 cells (ATCC 226-CCL) were transiently transfected with the various expression plasmids in 10 cm plates with lipofectamine (Gibco […]). For every transfection, the total amount of DNA was normalized with an expression plasmid encoding EGFP. […]

[3] = target: T3, hfused C-Flag (human, UniProt Q9NRP7 1-1315); assay: 293 cells, anti-Myc or anti-Flag IP, immunoblot
T3 construct: also called human fused C-Flag
T3 sequence: T2 sequence
From the text: as §1, §2

## purified PKAc (Upstate biotechnology)
[1]
  in vitro kinase assay with [γ-32P]ATP: when tested in vitro, GST-hSu(fu) was highly phosphorylated by purified PKAc

B1: N-Myc hGli-1 (other, human, UniProt P08151 1-1106, looked up, not shown: small tags and cut ends)
chain: MFNSMTPPPISSYGEPCCLRPLPSQGAPSVGTEGLSGPPFCHQANLMSGPHSYGPARETNSCTEGPLFSSPRSAVKLTKKRALSISPLSDASLDLQTVIRTSPSSLVAFINSRCTSPGGSYGHLSIGTMSPSLGFPAQMNHQKGPSPSFGVQPCGPHDSARGGMIPHPQSRGPFPTCQLKSELDMLVGKCREEPLEGDMSSPNSTGIQDPLLGMLDGREDLEREEKREPESVYETDCRWDGCSQEFDSQEQLVHHINSEHIHGERKEFVCHWGGCSRELRPFKAQYMLVVHMRRHTGEKPHKCTFEGCRKSYSRLENLKTHLRSHTGEKPYMCEHEGCSKAFSNASDRAKHQNRTHSNEKPYVCKLPGCTKRYTDPSSLRKHVKTVHGPDAHVTKRHRGDGPLPRAPSISTVEPKREREGGPIREESRLTVPEGAMKPQPSPGAQSSCSSDHSPAGSAANTDSGVEMTGNAGGSTEDLSSLDEGPCIAGTGLSTLRRLENLRLDQLHQLRPIGTRGLKLPSLSHTGTTVSRRVGPPVSLERRSSSSSSISSAYTVSRRSSLASPFPPGSPPENGASSLPGLMPAQHYLLRARYASARGGGTSPTAASSLDRIGGLPMPPWRSRAEYPGYNPNAGVTRRASDPAQAADRPAPARVQRFKSLGCVHTPPTVAGGGQNFDPYLPTSVYSPQPPSITENAAMDARGLQEEPEVGTSMVGSGLNPYMDFPPTDTLGYGGPEGAAAEPYGARGPGSLPLGPGPPTNYGPNPCPQQASYPDPTQETWGEFPSHSGLYPGPKALGGTYSQCPRLEHYGQVQVKPEQGCPVGSDSTGLAPCLNAHPSEGPPHPQPLFSHYPQPSPPQYLQSGPYTQPPPDYLPSEPRPCLDFDSPTHSTGQLKAQLVCNYVQSQQELLWEGGGREDAPAQEPSYQSPKFLGGSQVSPSRAKAPVNTYGPGFGPNLPNHKSGSYPTPSPCHENFVVGANRASHRAAAPPRLLPPLPTCYGPLKVGGTNPSCGHPEVGRLGGGPALYPPPEGQVCNPLDSLDLDNTQLDFVAILDEPQGLSPPPSHDQRGSSGHTPPPSGPPNMAVGNMSVLLRSLPGETEFLNSSA
notes: Expressed in C3H10T1/2 or 293 cells; also called human Gli-1
[2]
  binding result: binds
[3]
  binding result: binds
